Article PMC3553982 (Nucleic Acids Research, 2012)

How the values were obtained:
[1] = target: Rim1ΔC18 (S. cerevisiae) (UniProt P32445); test: pull-down
[2] = target: Human mitochondrial SSB (HsmtSSB) (human) (UniProt Q04837); test: pull-down
[3] = target: 5-FAM labeled Rim1 (FAM-Rim1) (S. cerevisiae) (UniProt P32445); test: fluorescence polarisation
[4] = target: 5-FAM labeled Rim1ΔC18 (FAM-Rim1ΔC18) (S. cerevisiae) (UniProt P32445); test: fluorescence polarisation
[5] = target: the molecule itself; test: SEC-MALS
[6] = target: T1, Rim1ΔC18 (Saccharomyces cerevisiae, UniProt P32445 18-117, del118-135); test: fluorescence anisotropy
T1 sequence: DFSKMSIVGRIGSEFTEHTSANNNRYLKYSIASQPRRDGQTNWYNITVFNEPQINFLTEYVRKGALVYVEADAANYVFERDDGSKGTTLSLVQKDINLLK

[7] = target: T2, Rim1 (Saccharomyces cerevisiae, UniProt P32445 18-135); test: fluorescence anisotropy
T2 sequence: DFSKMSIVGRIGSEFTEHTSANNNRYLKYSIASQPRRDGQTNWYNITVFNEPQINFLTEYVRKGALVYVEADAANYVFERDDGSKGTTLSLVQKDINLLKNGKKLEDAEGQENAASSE

Sequence of Human mitochondrial SSB (HsmtSSB) (human) (Q04837 17-148): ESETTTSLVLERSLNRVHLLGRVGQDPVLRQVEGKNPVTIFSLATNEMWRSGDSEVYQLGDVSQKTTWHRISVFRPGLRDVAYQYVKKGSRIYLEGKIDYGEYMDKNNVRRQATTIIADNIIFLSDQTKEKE

With “Pif1 (recombinant, nuclear form) (from UniProt P07271 46-859) (enzyme)” the relative amount of Pif1 co-precipitated (Pif1 bound to Rim1 taken as 1) [1] was 0.45, the relative amount of Pif1 co-precipitated (Pif1 bound to Rim1 taken as 1) [2] was 0.63 and the Kd [3] was 690 nM. The Kd [4] was 2500 nM.

B1: Rim1ΔC18 (domain or fragment, S. cerevisiae, UniProt P32445 18-117, looked up)
chain: DFSKMSIVGRIGSEFTEHTSANNNRYLKYSIASQPRRDGQTNWYNITVFNEPQINFLTEYVRKGALVYVEADAANYVFERDDGSKGTTLSLVQKDINLLK
B1 was tested, and the “stoichiometry N” value [5] was 4.

B2: 3'F-T70 (ssDNA)
DNA: TTTTTTTTTTTTTTTTTTTTTTTTTTTTTTTTTTTTTTTTTTTTTTTTTTTTTTTTTTTTTTTTTTTTTT
Work on B2 yielded a Kd [6] of less than 1 nM and a Kd [7] of less than 1 nM.
